# Source: PMC9753469
# B1: m11; m9 KAP1:R311E; ZNF93 KRAB:E35R (protein)
# chain: MAASAAAASAAAASAASGSPGPGEGSAGGEKRSTAPSAAASASASAAASSPAGGGAEALELLEHCGVCRERLRPEREPRLLPCLHSACSACLGPAAPAAANSSGDGGAAGDGTVVDCPVCKQQCFSKDIVENYFMRDSGSKAATDAQDANQCCTSCEDNAPATSYCVECSEPLCETCVEAHQRVKYTKDHTVRSTGPAKSRDGERTVYCNVHKHEPLVLFCESCDTLTCRDCQLNAHKDHQYQFLEDAVRNQRKLLASLVKRLGDKHATLQKSTKEVRSSIRQVSDVQKRVQVDVKMAILQIMKELNKRGEVLVNDAQKVTEGQQERLERQHWTMTKIQKHQEHILRFASWALESDNNTALLLSKKLIYFQLHRALKMIVDPVEPHGEMKFQWDLNAWTKSAEAFGKIVAERPGTNSTGPAPMAPPRAPGPLSKQGSGSSQPMEVQEGYGFGSGDDPYSSAEPHVSGVKRSRSGEGEVSGLMRKVPRVSLERLDLDLTADSQPPVFKVFPGSTTEDYNLIVIERGAAAAATGQPGTAPAGTPGAPPLAGMAIVKEEETEAAIGAPPTATEGPETKPVLMALAEGPGAEGPRLASPSGSTSSGLEVVAPEGTSAPGGGPGTLDDSATICRVCQKPGDLVMCNQCEFCFHLDCHLPALQDVPGEEWSCSLCHVLPDLKEEDGSLSLDGADSTGVVAKLSPANQRKCERVLLALFCHEPCRPLHQLATDSTFSLDQPGGTLDLTLIRARLQEKLSPPYSSPQEFAQDVGRMFKQFNKLTEDKADVQSIIGLQRFFETRMNEAFGDTKFSAVLVEPPPMSLPGAGLSSQELSGGPGDGP
# Molecular target: MBP-KRAB (ZNF93 KRAB E35R), P35789
# Sequence (P35789 2-71 E35R): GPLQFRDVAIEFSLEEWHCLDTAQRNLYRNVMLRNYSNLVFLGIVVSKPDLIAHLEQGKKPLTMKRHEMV
# Assay: SPR
# Conditions: chain shown with the change; MBP-KRAB immobilized on the chip; KAP1 RBCC as mobile phase
binder,measurement,value
B1,Kd,71.8 nM
